Laboratory results taken from patent publication US20170051021A1, “PEPTIDE AGONISTS OF TOLL-LIKE RECEPTOR 5 LIGAND AND METHOD OF USE” (priority 2014, published 2017).

Key:
Wistar rats = test: In vivo protective role against lethal irradiation, survival of Wistar rats; design: species or system rat; conditions: 0.1 mg/kg s.c. one hour before single total dose of 9.6 Gy, FIG. 16
Protocol: One hour later, rats were irradiated for about 30 min with a single total dose of 9.6 Gy and survival was monitored daily (FIG. 16).

NF-kB = NF-kB reporter system luciferase assay in transiently transfected CACO-2 cells; assay type: cell-based; conditions: CACO-2 cells transfected with mock vector delta NFkB-Luc
Protocol: All transfections were performed in triplicate in 24-well plates. Approximately 2×10^5 CACO-2 cells per well were seeded 24 h before transfection. Following the manufacturer's instructions, plasmids were transfected into cells using FUGENE transfection reagent (Promega, Medison, Wis.). Briefly, 0.8 μg of reporter plasmids carrying different NF-kB responsive elements (IL8-Luc, IGkB-Luc) plus 0.05 μg of pCMV-LacZ vector were diluted with Opti-MEM and then mixed with diluted liposomes. After 20 min of incubation at room temperature, the mixtures were added to each well. […] Each experiment was conducted a minimum of three times.

B1: VINCRO1 (protein)
chain: LTIQVGANDGETIDIDLKQINSQTLSSSGSSGSSGSSIDAALAQVDALRSDLGAVQNRFNSA
modifications: left off: small tags and cut ends
protection from lethal irradiation (survival) (Wistar rats): protect Wistar rats from lethal irradiation
luciferase activity with mock vector (specificity control) (NF-kB): no luciferase activity
